IntAct's records for PubMed 19154346

B1: Calreticulin (Homo sapiens), P27797 (parent)
chain: MLLSVPLLLGLLGLAVAEPAVYFKEQFLDGDGWTSRWIESKHKSDFGKFVLSSGKFYGDEEKDKGLQTSQDARFYALSASFEPFSNKGQTLVVQFTVKHEQNIDCGGGYVKLFPNSLDQTDMHGDSEYNIMFGPDICGPGTKKVHVIFNYKGKNVLINKDIRCKDDEFTHLYTLIVRPDNTYEVKIDNSQVESGSLEDDWDFLPPKKIKDPDASKPEDWDERAKIDDPTDSKPEDWDKPEHIPDPDAKKPEDWDEEMDGEWEPPVIQNPEYKGEWKPRQIDNPDYKGTWIHPEIDNPEYSPDPSIYAYDNFGVLGLDLWQVKSGTIFDNFLITNDEAYAEEFGNETWGVTKAAEKQMKDKQDEEQRLKEEEEDKKRKEEEEAEDKEDDEDKDEDEEDEEDKEEDEEEDVPGQAKDEL

Variants of: B1
Conditions: with gbrap_human GABARAP

effect of a mutation on the interaction | Variant
disrupting interaction | W200A
